# Laboratory results published in article PMC11323535, “Neisserial adhesin A (NadA) binds human Siglec-5 and Siglec-14 with high affinity and promotes bacterial adhesion/invasion” (mBio, 2024).
# B1: Chromosome two open reading frame 66 (protein microarray) (natural protein, human, UniProt Q6UXQ4 39-117, looked up)
# chain: ATVRNEDKWKPLNNPRNRDLFFRRLQAYFKGRGLDLGTFPNPFPTNENPRPLSFQSELTASASADYEEQKNSFHNYLKG
# notes: human C2orf66, recombinant soluble protein; also called C2orf66; source: recombinant soluble protein produced at GNF, spotted on the microarray
# B2: Stathmin 2 (protein microarray) (natural protein, human, UniProt Q93045-2 1-187, looked up)
# chain: MAKTAMAYKEKMKELSMLSLICSCFYPEPRNINIYTYDDMEVKQINKRASGQAFELILKPPSPISEAPRTLASPKKKDLSLEEIQKKLEAAEERRKSQEAQVLKQLAEKREHEREVLQKALEENNNFSKMAEEKLILKMEQIKENREANLAAIIERLQEKLVKFISSELKESIESQFLELQREGEKQ
# notes: human stathmin 2, recombinant soluble protein; also called STMN2; source: recombinant soluble protein produced at GNF, spotted on the microarray
# Biological target: T1, recombinant soluble NadA (NadA_(24–350)) (Neisseria meningitidis strain 2996, UniProt Q8KH85 24-350)
# T1 construct: Neisserial adhesin A (NadA) variant 3, N. meningitidis strain 2996, residues 24-350: ectodomain without the leader peptide and the anchor domain; Heated at 80°C for 2 h (thermally stressed, monomeric) in one SPR experiment; also called rNadA; NadA ectodomain
# Test: peptide or protein array; recombinant soluble human and mouse proteins spotted; rNadA_(24–350) 1 µM in Nap-PBS overlaid for 1 h; rabbit anti-NadA serum and AlexaFluor 647 anti-rabbit IgG; MFI ≥ 30,000 high reactivity, MFI < 5,000 no reactivity
# Settings: both partners purified
binder,measurement,value
B1,binding result,binds
B2,binding result,binds
